± gives the uncertainty stated by the source.

This series is described as follows: amyloid nucleation score (Sup35N fusion, yeast selection) (log enrichment); library NNK1; higher = more nucleation; inactive = no reads after selection. An outline of the steps:
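The nucleation score is the DiMSum log enrichment of output over input reads, centred on the mode score of non-aggregating sequences. Only sequences with 100 or more input reads were scored, using Illumina sequencing of input and output plasmid inserts. Psi-negative yeast expressing Sup35N fused to peptides of 20 random codons were induced 24 hours with 100 μM copper sulfate and grown 7 days at 30°C on medium lacking adenine and uracil.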
Turning to ADTCGCGWDSRRKCFMGGYS, the amyloid nucleation score was -0.187 ± 0.52.
The figure for AEHYPGIVVCLSLCDS is -1.77 ± 2.4; for AELSITASTNMESNLVNSIR it is -1.69 ± 2.7; for AESLIKHLK it is 0.334 ± 0.43.
For the substance AFAFEYCRTSRIFCQGMEWQ, the amyloid nucleation score turned out to be 1.05 ± 0.6.
Regarding AFCSAAVQAEICEWCNSIYA, the amyloid nucleation score was -0.431 ± 0.64.
The figure for AFDGVS is -0.096 ± 1.7; for AFDLTEVQFLRVVKS it is -0.259 ± 0.44; for AFFSAKIKAPFNDVFGYGFV it is 0.289 ± 0.33.
The figure for AFFYYIEQDSYTVRSIMI is -0.294 ± 0.42; for AFLIIMSGSGNCICLRSLVS it is -0.385 ± 0.3; for AFMDKLMSPGEVIEVAL it is 1.29 ± 0.84.
Next, AFMYYTGATIMHLQSANGGL: 2.27 ± 0.17.
AFPPYRIFADRLYMSSPGPA displayed an amyloid nucleation score of 0.961 ± 0.69.
The figure for AFRFHQHMACREL is 4.36 ± 0.055; for AFSANF it is 0.779 ± 0.42; for AFVIFVYNKSIAQIWHFRGY it is -0.797 ± 0.37.
Substance AFVTSRPYWGNSVVEAHLVG yielded an amyloid nucleation score of 1.69 ± 0.19.
Next, AGCDNMIYMSTWVKWESN: 0.197 ± 0.31; AGFSTHSSGCVGECVGQRT: 0.32 ± 0.69.
Next, AGHSCQSTMTGCYTFHSYVW: -0.102 ± 0.49; AGKCIVQYKGLKNVR: 0.91 ± 0.75.
The figure for AGLRVYKIKSFRLEDSVNAG is 1.49 ± 0.71; for AGLWYNWRECSFHRVVVGYP it is 0.737 ± 0.55; for AGMCSIC it is 0.155 ± 0.36.
Substance AGRMEGYESEGPPGHA returned an amyloid nucleation score of 0.187 ± 0.39.
Next, AGRRKSRSAVQREP: 0.528 ± 0.88.
Next, AGSDGQGDGEQWRNHLRPIA: -0.294 ± 0.64; AGSEVFEK: 0.073 ± 0.32.
The figure for AGWYASW is 0.142 ± 0.74; for AGYAYSGIVAGAYWIFCNYE it is 1.12 ± 0.85; for AHTSYYTMSTSRTADGVKIS it is 0.028 ± 0.31.
AHYRV gave an amyloid nucleation score of 0.014 ± 0.48.
Turning to AIEPHDGFWGVWSTLGVILI, the amyloid nucleation score stood at 1.32 ± 0.93.
Next, AIFFGGIGKVCVKLVLCVRL: 0.248 ± 0.27.
As to AIFKSITDPVLWSGLF, the amyloid nucleation score came to 0.562 ± 0.97.
Next, AIFNTGNMWDTLRRHSGVHV: -0.059 ± 1.2; AINLRLV: 0.23 ± 0.36; AIPGGVTGTGWSSM: -0.221 ± 0.51.
Next, AISDFMGHS: -0.825 ± 1.1; AIYVNGCVCCISYLVPILMS: 3.61 ± 0.075.
The figure for AKMRMNNSFFFTVNWVLMNW is -0.461 ± 0.4; for AKSELHYSRFYFTLGVMKSL it is -0.138 ± 0.48; for AKSVYILVR it is “inactive”.
With AKVRKNYTFLHLSPLGRGFD, the amyloid nucleation score was 0.321 ± 0.48.
Next, AKYPMQRLLRFLFLVVR: 0.374 ± 0.48.
The figure for ALHVGLNSFPGMSRYV is 0.212 ± 0.89.
The figure for ALSDFGDKLSPPEDLRLEHW is 1.07 ± 0.62; for ALSPRVSSLGNFT it is -0.691 ± 0.53; for ALVTVIHAPVFYLWNAFYLC it is 7.396 ± 0.048.
On to AMLLLTCGL, for which the amyloid nucleation score is 0.481 ± 0.74.
Next, AMPYCGK: 0.575 ± 0.36.
The figure for AMWYTRRMQVENVKTVLSLM is -0.027 ± 0.34; for AMYFTWFVHFGAYRVRSIEK it is 1.48 ± 0.48; for ANDFYVMYAEWKDCRNRVLF it is 0.655 ± 0.66.
The figure for ANFAIFWSFYRGWCSFKIQS is 0.871 ± 0.5; for ANFFICFLHLVCTKIQSSLL it is 1.77 ± 0.52; for ANQRSAGYPSGYKCTYYNRS it is 0.838 ± 0.41.
